# Measured values from article PMC11789017, “Preventing inappropriate signals pre- and post-ligand perception by a toggle switch mechanism of ERECTA” (Proceedings of the National Academy of Sciences of the …, 2025).
# T1: GST-PUB30 (U-box E3 ligase PUB30) (UniProt Q058P4 1-448)
# T1 construct: plant U-box (PUB) E3 ubiquitin ligase PUB30; Tag end from the order of the printed name; source: recombinantly purified; not shown: GST, N-terminal, kept
# T1 sequence (looked up): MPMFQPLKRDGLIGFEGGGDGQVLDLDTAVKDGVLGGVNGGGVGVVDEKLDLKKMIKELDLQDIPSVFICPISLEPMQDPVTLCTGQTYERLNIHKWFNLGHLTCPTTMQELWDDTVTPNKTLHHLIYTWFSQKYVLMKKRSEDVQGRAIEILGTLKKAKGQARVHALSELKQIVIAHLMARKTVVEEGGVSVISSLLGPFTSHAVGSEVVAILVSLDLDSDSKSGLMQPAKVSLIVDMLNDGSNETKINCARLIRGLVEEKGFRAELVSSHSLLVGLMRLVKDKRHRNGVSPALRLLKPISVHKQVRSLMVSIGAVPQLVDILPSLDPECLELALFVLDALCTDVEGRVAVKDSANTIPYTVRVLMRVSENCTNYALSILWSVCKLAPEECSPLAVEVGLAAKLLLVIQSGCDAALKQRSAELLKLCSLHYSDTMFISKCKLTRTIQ
# T2: MBP-ER_CD_(T/S8A), phosphonull version (Arabidopsis, UniProt Q42371 602-976, Thr947 (T/S8A) | Ser950 (T/S8A) | Ser954 (T/S8A) | Ser955 (T/S8A) | Ser957 …)
# T2 sequence: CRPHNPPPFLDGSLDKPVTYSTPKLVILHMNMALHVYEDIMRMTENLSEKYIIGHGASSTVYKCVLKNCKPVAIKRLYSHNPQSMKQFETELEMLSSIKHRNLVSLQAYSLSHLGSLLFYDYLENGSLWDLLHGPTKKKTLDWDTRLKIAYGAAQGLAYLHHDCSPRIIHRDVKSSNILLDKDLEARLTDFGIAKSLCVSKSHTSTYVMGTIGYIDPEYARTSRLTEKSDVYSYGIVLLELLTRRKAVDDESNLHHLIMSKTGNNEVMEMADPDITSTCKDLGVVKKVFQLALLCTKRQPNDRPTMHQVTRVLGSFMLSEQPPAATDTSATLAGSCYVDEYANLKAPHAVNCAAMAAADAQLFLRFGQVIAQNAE
# T3: MBP-ER_CD_(T/S8E), phosphomimetic version (Arabidopsis, UniProt Q42371 602-976, Thr947 (T/S8E) | Ser950 (T/S8E) | Ser954 (T/S8E) | Ser955 (T/S8E) | Ser957 …)
# T3 sequence: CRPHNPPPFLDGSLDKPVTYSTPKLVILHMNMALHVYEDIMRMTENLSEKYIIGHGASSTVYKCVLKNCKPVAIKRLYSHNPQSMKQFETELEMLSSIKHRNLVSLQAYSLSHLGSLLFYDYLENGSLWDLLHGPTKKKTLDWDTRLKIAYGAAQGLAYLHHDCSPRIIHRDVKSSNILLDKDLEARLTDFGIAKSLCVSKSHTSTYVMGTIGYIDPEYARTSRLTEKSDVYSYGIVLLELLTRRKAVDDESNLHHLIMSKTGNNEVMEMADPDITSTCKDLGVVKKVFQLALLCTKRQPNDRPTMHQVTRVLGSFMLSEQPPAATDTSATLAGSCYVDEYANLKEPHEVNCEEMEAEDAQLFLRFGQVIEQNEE
# T4: MBP-ER_CD_(T/S8A), phosphonull version (Arabidopsis, UniProt Q42371 602-976, Thr947 (T/S8A) | Ser950 (T/S8A) | Ser954 (T/S8A) | Ser955 (T/S8A) | Ser957 …)
# T4 construct: ERECTA (ER), Arabidopsis, cytoplasmic domain with the eight phosphosites of the C-terminal tail changed to alanine; Tag end from the order of the printed name; source: recombinant, purified; not shown: MBP, N-terminal, kept
# T4 sequence (looked up): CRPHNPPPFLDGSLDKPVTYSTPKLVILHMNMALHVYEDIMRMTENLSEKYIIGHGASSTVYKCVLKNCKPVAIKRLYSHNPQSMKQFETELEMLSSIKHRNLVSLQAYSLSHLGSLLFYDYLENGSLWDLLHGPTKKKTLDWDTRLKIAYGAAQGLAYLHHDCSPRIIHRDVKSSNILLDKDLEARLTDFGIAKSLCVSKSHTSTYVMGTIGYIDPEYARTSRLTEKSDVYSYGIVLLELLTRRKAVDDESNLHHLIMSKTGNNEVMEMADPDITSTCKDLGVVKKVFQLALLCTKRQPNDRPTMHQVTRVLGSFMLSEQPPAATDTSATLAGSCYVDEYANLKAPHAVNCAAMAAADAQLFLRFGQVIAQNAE
# B1: MBP-fused full-length ER cytoplasmic domain (MBP-ER_CD) (domain or fragment, Arabidopsis, UniProt Q42371 602-976, looked up)
# chain: CRPHNPPPFLDGSLDKPVTYSTPKLVILHMNMALHVYEDIMRMTENLSEKYIIGHGASSTVYKCVLKNCKPVAIKRLYSHNPQSMKQFETELEMLSSIKHRNLVSLQAYSLSHLGSLLFYDYLENGSLWDLLHGPTKKKTLDWDTRLKIAYGAAQGLAYLHHDCSPRIIHRDVKSSNILLDKDLEARLTDFGIAKSLCVSKSHTSTYVMGTIGYIDPEYARTSRLTEKSDVYSYGIVLLELLTRRKAVDDESNLHHLIMSKTGNNEVMEMADPDITSTCKDLGVVKKVFQLALLCTKRQPNDRPTMHQVTRVLGSFMLSEQPPAATDTSATLAGSCYVDEYANLKTPHSVNCSSMSASDAQLFLRFGQVISQNSE
# notes: ERECTA (ER) receptor kinase, Arabidopsis, cytoplasmic domain (juxtamembrane domain, kinase domain and C-terminal tail); source: recombinant, expressed and purified; not shown: MBP, N-terminal, kept
# Assays:
# [1] = biological target: GST-BKI1 (BRI1 KINASE INHIBITOR 1) (UniProt Q9FMZ0); experiment: BLI; recombinantly purified GST-BKI1 or GST-PUB30 and MBP-ER_CD variants at seven concentrations (156.25, 312.5, 625, 1,250, 2,500, 5,000 and 10,000 nM); three independent experiments; who was immobilised is in SI Appendix
# [2] = biological target: GST-PUB30 (U-box E3 ligase PUB30) (UniProt Q058P4); experiment: as above
# [3] = biological target: T1, GST-PUB30 (U-box E3 ligase PUB30); experiment: as above; details: both partners purified
# [4] = biological target: T2, MBP-ER_CD_(T/S8A), phosphonull version; experiment: BLI
# [5] = biological target: T3, MBP-ER_CD_(T/S8E), phosphomimetic …; experiment: BLI
# [6] = biological target: B1; experiment: BLI; recombinantly purified GST-BKI1 or GST-PUB30 and MBP-ER_CD variants at seven concentrations (156.25, 312.5, 625, 1,250, 2,500, 5,000 and 10,000 nM); three independent experiments; who was immobilised is in SI Appendix; details: both partners purified
# [7] = biological target: T4, MBP-ER_CD_(T/S8A), phosphonull version; experiment: as above; details: both partners purified
molecule,measurement,setting,value
MBP-ER_CD_(ΔCTα-Helix) (domain or fragment),Kd,[1],47.7 µM
same,Kd,[2],0.805 µM
B1,Kd,[3],0.393 ± 0.048 µM
"GST-BKI1 (BRI1 KINASE INHIBITOR 1) (natural protein, UniProt Q9FMZ0 1-337, looked up, Tag end from the order of the printed name; source: recombinantly purified; not shown: GST, N-terminal, kept) METNLQQVKNSSQTFSEKQNPKQEASPSPISSTCSSPSHDFSFTISLQPLSSSSKHISPTLRSPSKTTSSYQQTDPFAVDLSPADEIFFHGHLLPLHLLSHLPVSPRTSTGSYNDGFTLPVKDILPDQPTNNNNNTENAITNISTEAKDDNTEDKAEGEIRVKTKPIKSFSLFGLSKWRKGFESNEREQEQQQQKIKKPMSLDLSHAVKKYIRMLFQKRGNGTQFWNRRQTSSYSFSSSLMGPNGNSKTMINGSYNKRDLIRGRRGELFSAPASMRTSPTNSGHLRVSTAGLSSSSGSTSSSSSDSTMEELQAAIQAAIAHCKNSSAVDRDDKVKDS",Kd,[4],3.8 µM
same,Kd,[5],18 µM
same,Kd,[6],3.7 ± 0.7 µM
same,binding result,[7],binds
"MBP-ER_CD_(T/S8E), phosphomimetic version (domain or fragment, Arabidopsis, UniProt Q42371 602-976, looked up, ERECTA (ER), Arabidopsis, cytoplasmic domain with the eight phosphosites of the C-terminal tail changed to glutamate; Tag end from the order of the printed name; source: recombinant, purified; not shown: MBP, N-terminal, kept) CRPHNPPPFLDGSLDKPVTYSTPKLVILHMNMALHVYEDIMRMTENLSEKYIIGHGASSTVYKCVLKNCKPVAIKRLYSHNPQSMKQFETELEMLSSIKHRNLVSLQAYSLSHLGSLLFYDYLENGSLWDLLHGPTKKKTLDWDTRLKIAYGAAQGLAYLHHDCSPRIIHRDVKSSNILLDKDLEARLTDFGIAKSLCVSKSHTSTYVMGTIGYIDPEYARTSRLTEKSDVYSYGIVLLELLTRRKAVDDESNLHHLIMSKTGNNEVMEMADPDITSTCKDLGVVKKVFQLALLCTKRQPNDRPTMHQVTRVLGSFMLSEQPPAATDTSATLAGSCYVDEYANLKEPHEVNCEEMEAEDAQLFLRFGQVIEQNEE",binding result,[3],binds
GST-PUB30 (U-box E3 ligase PUB30) (enzyme) MPMFQPLKRDGLIGFEGGGDGQVLDLDTAVKDGVLGGVNGGGVGVVDEKLDLKKMIKELDLQDIPSVFICPISLEPMQDPVTLCTGQTYERLNIHKWFNLGHLTCPTTMQELWDDTVTPNKTLHHLIYTWFSQKYVLMKKRSEDVQGRAIEILGTLKKAKGQARVHALSELKQIVIAHLMARKTVVEEGGVSVISSLLGPFTSHAVGSEVVAILVSLDLDSDSKSGLMQPAKVSLIVDMLNDGSNETKINCARLIRGLVEEKGFRAELVSSHSLLVGLMRLVKDKRHRNGVSPALRLLKPISVHKQVRSLMVSIGAVPQLVDILPSLDPECLELALFVLDALCTDVEGRVAVKDSANTIPYTVRVLMRVSENCTNYALSILWSVCKLAPEECSPLAVEVGLAAKLLLVIQSGCDAALKQRSAELLKLCSLHYSDTMFISKCKLTRTIQ,Kd,[4],9.5 µM
same,Kd,[5],0.194 µM
